Laboratory results from patent US20220062372A1, “METHODS FOR TREATING DISEASE AND REDUCING DRUG-INDUCED LIVER INJURY IN PATIENT POPULATIONS” (Ten Peaks LLC, priority 2020, published 2022).
Values belong to the substance of their own block, whether it stands above or below them. Where no end group is shown, it is not given here.

How the values were obtained:
[1] = target: T1, HLA-B*39:01 and β2-microglobulin (Homo sapiens, UniProt P01889, A182T/A93T/A95T/C349S/D138N/D201E/E176V/E187T/E204Q/K202T/Q94N/R155S/R180L/S121R/Y140F/Y91C); experiment: Refolding of HLA complexes with synthetic peptides, G200 superdex chromatography (OD280); format: binding; details: for peptide binding and proper refolding of HLA-B*39:01 (peak in chromatogram): FIG. 2A-2D, FIG. 3; for binding to HLA-B*39:01 (results of the studies taken together): overall conclusion of Example 2, Tables 6 and 7 and FIGS. 2-4
T1 construct: made in house; host or cells: E. coli
Method: (§1) Refolding, characterization and purification of HLA complexes was performed as described (PMID: 12220628). Briefly, HLA-B*39:01 and β2-microglobulin were expressed in E. coli. Inclusion bodies were isolated, denatured in 8 M Urea and mixed with synthetic peptides derived from infliximab (Genscript) at a final concentration of 0.2 mg per ml protein, 6 M Urea, 20 mM Tris pH 8.0, 1 mM GSH, 10 mM GSSH for 24 hours, then dialyzed against 10 mM Tris pH 8.0 for 3 days. Samples concentrated to reduce the volume 10 fold, then loaded on a G200 superdex column calibrated with standards (http://www.bio-rad.com/webroot/web/pdf/1sr/literature/MSLIT-102E.pdf) in 10 mM Tris, 150 mM NaCl, at 0.75 ml per minute. OD280 was recorded for chromatographic analysis.
(§2) Results of the study are provided in FIGS. 2-4 and in Tables 6 and 7. In Tables 6 and 7, the IC50 (nM) for each peptide binding to HLA-B*39:01, HLA-B*05:01, HLA-B*35:01, or HLA-B*57:01 are shown in nM. […] In each of FIG. 2A-2D, the dotted line arrow points to the peak (or lack of a peak, for FIG. 2D) indicating peptide binding and proper refolding. […] The dotted line arrow points to the peak (or lack of a peak) indicating peptide binding and proper refolding. […] FIGS. 5A and 5B show an exemplary crystal structure of infliximab.

[2] = background description of the marketed drug; cited from earlier work
[3] = system: other HLAs; experiment: Peptide binding to other HLAs (overall conclusion of Example 2); design: species or system human
Method: A study was conducted to identify interactions between peptides present on the infliximab antibody and HLA-B*39:01. Peptides corresponding to heavy and light chain sequences of infliximab (chain H and L in PDB code 4G3Y) were predicted to bind class I HLA molecules based on the Stabilized matrix method (SMM) implemented in Immune Epitope Database and Analysis Resource (IEDB). Peptides predicted to bind with estimated Kd values less than 0.5 μM were considered candidate binders for: HLA-B*39:01, HLA-B*15:01, HLA-B*35:01, and HLA-B*57:01.
as §1, §2

[4] = HLA analysis of infliximab-DILI cases vs. matched controls and reference populations; format: in vivo, human; details: for OR vs. Ref 2 / OR vs. Ref 1 / OR vs. Control / OR: DILI after infliximab; for OR vs. Control: 25 Caucasian cases vs 60 controls; for OR: cases vs controls
Method: Samples from 25 Caucasians, 3 Africans, and 3 outliers subjects that had been treated with infliximab and had experienced DILI were obtained. These are referred to as “cases” here. These samples were compared to a set of 60 matched Caucasian and 6 matched African controls. […] The controls were matched for age, sex, ethnicity, and BMI where possible. Statistical analyses were performed to identify from these cases HLA alleles that are risk factors for the development of DILI following infliximab exposure. Significant alleles were determined using Fisher's Exact Test (FET) (p<0.05).
As a secondary comparison, the HLA profiles of the 25 Caucasian cases were compared to reference populations available at www.allelefrequencies.net. For calculating population presence rates, reference list entries were found by searching for “Caucasoid” ethnic origin subjects of gold-standard studies involving ≥100 subjects for alleles of interest on allelefrequencies.net. Sample sizes for the references represent the reported number of subjects directly typed for a given locus (i.e. USA NMDP European Caucasian reports 1,242,890 subjects typed for HLA-B and DRB1, but only 395,676 subjects typed for HLA-C; see Table 3).
In order to test for significant differences between the 31 Infliximab-DILI cases and the reference populations using Fisher's Exact Test (FET), counts of individuals carrying at least one copy of the allele in question were calculated one of two ways. If the population presence rate was available, the number of individuals was estimated by rounding the product of the population presence rate and the sample size for that HLA locus in that study. If no population presence rate was available, this number was estimated using the allele frequency rate and assuming Hardy-Weinberg equilibrium (HWE). That is, if the allele frequency is p, the number of individuals with the allele in question were calculated as [p^2+2*p*(1−p)]*Nsamples, where p^2+2*p*(1−p) represents the percentage of carriers if HWE is assumed, and N samples is the reference sample size for that locus.
The data sets individually analyzed were: Caucasian typed and/or Caucasian imputed; African typed and/or African imputed; and All Ethnicities typed and/or All Ethnicities imputed. “Typed only” means that only subjects with directly typed HLA alleles were considered in the indicated analysis. “Imputed only” means that only the imputed alleles (i.e., the subject's HLA profile was determined using known proxies for HLA subtypes in their genetic sequence) for each subject were used in the indicated analysis. “Imputed+Typed” means that all subjects were considered; here, directly typed HLA alleles were used if available, otherwise, imputed alleles were used.

Substance: ACTEMRA: interleukin-6 (IL-6) receptor antagonist
hepatic adverse reactions reported in patients [2]: Serious cases of hepatic injury have been observed

Substance: Certolizumab: anti-TNF antibody used for the treatment of autoimmune diseases
hepatic adverse reactions reported in patients [2]: Elevated liver enzymes and hepatitis have been reported

Substance: ENTYVIO: integrin receptor antagonist for ulcerative colitis or Crohn's disease
hepatic adverse reactions reported in patients [2]: reports of elevations of transaminase and/or bilirubin

Substance: GAZYVA: CD20-directed cytolytic antibody
hepatic adverse reactions reported in patients [2]: Hepatic enzyme elevations have occurred in CLL patients

Substance: Guselkumab: IL-23 blocker
hepatic adverse reactions reported in patients [2]: Elevated liver enzymes have been reported

Substance: Infliximab: mouse-human chimeric monoclonal antibody that binds to human tumor necrosis factor (TNF)
hepatic adverse reactions reported in patients [2]: known to cause hepatotoxicity, and even severe hepatic reactions that can be fatal or necessitate a liver transplant
OR vs. Ref 2 ([4]; B*39:01, 25 Caucasian cases vs England Northwest): 13.72
OR vs. Ref 1 ([4]; B*39:01, 25 Caucasian cases vs USA NMDP European Caucasian): 8.33
OR vs. Ref 2 ([4]; C*12:03, 25 Caucasian cases vs UK Pop 3): 4.56
OR vs. Ref 1 ([4]; C*12:03, 25 Caucasian cases vs USA NMDP European Caucasian): 3.02
OR vs. Control ([4]; DQA1*3:03): 18.82
OR vs. Ref 2 ([4]; DQA1*3:03, 25 Caucasian cases vs Netherlands pop 2): 0.87
OR vs. Ref 1 ([4]; DQA1*3:03, 25 Caucasian cases vs USA Caucasian Bethesda): 0.92
OR vs. Control ([4]; DQB1*02:01): 4.93
OR vs. Ref 2 ([4]; DQB1*02:01, 25 Caucasian cases vs USA Philadelphia Caucasian): 3.57
OR vs. Ref 1 ([4]; DQB1*02:01, 25 Caucasian cases vs USA San Antonio Caucasian): 2.54
OR vs. Control ([4]; DRB1*03:01): 4.24
OR vs. Ref 1 ([4]; DRB1*03:01, 25 Caucasian cases vs USA NMDP European Caucasian): 2.25
OR vs. Ref 2 ([4]; DRB1*03:01, 25 Caucasian cases vs USA Philadelphia Caucasian): 3.57
OR ([4]; HLA-A*02:01, African imputed + typed): 91.00
OR ([4]; HLA-B*39:01, Caucasian imputed + typed): 25.33
OR ([4]; HLA-C*07:01, All ethnicities imputed + typed): 2.77
OR ([4]; HLA-C*12:03, Caucasian imputed + typed): 5.85
OR ([4]; HLA-DPB1*04:02, African imputed + typed): 25.67
OR ([4]; HLA-DQA1*03:01, All ethnicities imputed + typed): 0.28
OR ([4]; HLA-DQA1*03:03, All ethnicities imputed + typed): 16.33
OR ([4]; HLA-DQB1*02:01, All ethnicities imputed + typed): 5.21
OR ([4]; HLA-DRB*03:01, All ethnicities imputed + typed): 4.50
risk of DILI following infliximab administration in subjects with HLA-B*39:01 ([4]; in words): associated with a higher risk of DILI

Substance: THQGLSSPV [SEQ ID NO: 1, THQGLSSPV]
binding to other HLAs (results of the studies taken together) [3]: not to other HLAs
peptide binding and proper refolding of HLA-B*39:01 (peak in chromatogram) [1]: binding
binding to HLA-B*39:01 (results of the studies taken together) [1]: bind to HLA-B*39:01 at significant levels

Substance: TKGPSVFPL [SEQ ID NO: 2, TKGPSVFPL]
binding to other HLAs (results of the studies taken together) [3]: not to other HLAs
peptide binding and proper refolding of HLA-B*39:01 (peak in chromatogram) [1]: binding
binding to HLA-B*39:01 (results of the studies taken together) [1]: bind to HLA-B*39:01 at significant levels

Substance: TYSABRI: integrin receptor antagonist indicated for multiple sclerosis and Crohn's disease
hepatic adverse reactions reported in patients [2]: Significant liver injury, including liver failure requiring transplant, has occurred in patients

Substance: YSLSSTLTL [SEQ ID NO: 5, YSLSSTLTL]
binding to other HLAs (results of the studies taken together) [3]: not to other HLAs
binding to HLA-B*39:01 (results of the studies taken together) [1]: bind to HLA-B*39:01 at significant levels

Substance: ZINBRYTA: CD25 (IL-2 receptor)-specific antibody used to treat multiple sclerosis
hepatic adverse reactions reported in patients [2]: can cause severe liver injury, including autoimmune hepatitis and liver failure

Substance: golimumab: TNF blocker
hepatic adverse reactions reported in patients [2]: reports of severe hepatic reactions including acute liver failure

Now from value to substance, other results behind:

peptide binding and proper refolding of HLA-B*39:01 (peak in chromatogram) [1]: lack of binding
binding to HLA-B*39:01 (results of the studies taken together) [1]: does not bind
Substance: ACEVTHQGL [SEQ ID NO: 12]

binding to other HLAs (results of the studies taken together) [3]: not to other HLAs
Substance: CQQSHSWPF [SEQ ID NO: 9, CQQSHSWPF]
binding to HLA-B*39:01 (results of the studies taken together) [1]: bind to HLA-B*39:01 at significant levels

binding to other HLAs (results of the studies taken together) [3]: not to other HLAs
Substance: LQSSGLYSL [SEQ ID NO: 10, LQSSGLYSL]
binding to HLA-B*39:01 (results of the studies taken together) [1]: bind to HLA-B*39:01 at significant levels

binding to other HLAs (results of the studies taken together) [3]: not to other HLAs
Substance: STSGGTAAL [SEQ ID NO: 11, infliximab heavy chain peptide]
binding to HLA-B*39:01 (results of the studies taken together) [1]: bind to HLA-B*39:01 at significant levels

binding to other HLAs (results of the studies taken together) [3]: not to other HLAs
Substance: STYSLSSTL [SEQ ID NO: 7, infliximab light chain peptide]
binding to HLA-B*39:01 (results of the studies taken together) [1]: bind to HLA-B*39:01 at significant levels

binding to other HLAs (results of the studies taken together) [3]: not to other HLAs
Substance: TQSPAILSV [SEQ ID NO: 6, TQSPAILSV]
binding to HLA-B*39:01 (results of the studies taken together) [1]: bind to HLA-B*39:01 at significant levels

binding to other HLAs (results of the studies taken together) [3]: not to other HLAs
Substance: VQWKVDNAL [SEQ ID NO: 8, VQWKVDNAL]
binding to HLA-B*39:01 (results of the studies taken together) [1]: bind to HLA-B*39:01 at significant levels
